A word on the kcat: it is the maximal rate divided by the concentration of active sites.

Substitutions are numbered along the chain they refer to. Names may count otherwise.

We go through 6 molecules from article PMC7693034, “Identification of Amino Acid Residues Responsible for C−H Activation in Type‐III Copper Enzymes by Generating Tyrosinase Activity in a Catechol Oxidase” (Angewandte Chemie (International Ed. in English), 2020).

Series [1] concerns the target T1, CgAUS (aurone synthase from Coreopsis grandiflora) (Coreopsis grandiflora, UniProt A0A075DN54, R342D).
T1 construct: recombinant from E. coli, purified to homogeneity
T1 sequence (A0A075DN54 86-602 R342D): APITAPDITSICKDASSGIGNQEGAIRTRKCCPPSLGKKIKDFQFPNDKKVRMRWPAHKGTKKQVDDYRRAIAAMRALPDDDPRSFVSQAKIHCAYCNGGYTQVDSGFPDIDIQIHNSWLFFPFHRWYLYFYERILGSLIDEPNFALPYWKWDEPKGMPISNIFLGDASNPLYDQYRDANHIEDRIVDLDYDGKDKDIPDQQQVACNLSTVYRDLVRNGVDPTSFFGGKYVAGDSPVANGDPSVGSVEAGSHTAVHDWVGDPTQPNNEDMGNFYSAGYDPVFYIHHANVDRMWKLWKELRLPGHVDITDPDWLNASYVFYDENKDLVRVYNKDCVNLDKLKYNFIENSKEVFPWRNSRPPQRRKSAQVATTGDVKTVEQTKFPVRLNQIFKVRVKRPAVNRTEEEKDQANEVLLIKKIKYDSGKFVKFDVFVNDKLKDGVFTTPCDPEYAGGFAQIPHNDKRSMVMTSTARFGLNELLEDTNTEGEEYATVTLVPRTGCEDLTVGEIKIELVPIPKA
The series can be described thus: enzyme kinetics, diphenolase activity. The series is classed as biochemical. Particulars: type-III copper enzyme; read-out: Dopamine / K m. From the text: (§1) enzyme kinetics, diphenolase activity on CgAUS (aurone synthase from Coreopsis grandiflora)

For series [2], the target named is T2, CgAUS (aurone synthase from Coreopsis grandiflora) (Coreopsis grandiflora, UniProt A0A075DN54, C182S/T338D/R342D).
T2 construct: recombinant from E. coli, purified to homogeneity
T2 sequence (A0A075DN54 86-602 C182S/T338D/R342D): T1 sequence (A0A075DN54 86-602 R342D) with C97S, T253D
The series can be described thus: enzyme kinetics, diphenolase activity. The series is classed as biochemical. Particulars: type-III copper enzyme; read-out: Dopamine / K m.
Description: as §1

Series [3] deals with T3, CgAUS (aurone synthase from Coreopsis grandiflora) (Coreopsis grandiflora, UniProt A0A075DN54, C182S).
T3 construct: recombinant from E. coli, purified to homogeneity
T3 sequence (A0A075DN54 86-602 C182S): T1 sequence (A0A075DN54 86-602 R342D) with C97S, D257R
Put plainly: enzyme kinetics, diphenolase activity. Particulars: type-III copper enzyme; read-out: Dopamine / K m. The series is classed as biochemical.
Description: as §1

Series [4] addresses T4, CgAUS (aurone synthase from Coreopsis grandiflora) (Coreopsis grandiflora, UniProt A0A075DN54, T338D).
T4 construct: recombinant from E. coli, purified to homogeneity
T4 sequence (A0A075DN54 86-602 T338D): T1 sequence (A0A075DN54 86-602 R342D) with T253D, D257R
Put plainly: enzyme kinetics, diphenolase activity. The series is classed as biochemical. The settings on record: type-III copper enzyme; read-out: Dopamine / K m.
Description: as §1

For series [5], the target named is T5, CgAUS (aurone synthase from Coreopsis grandiflora) (Coreopsis grandiflora, UniProt A0A075DN54).
T5 construct: recombinant from E. coli, purified to homogeneity
T5 sequence (A0A075DN54 86-602): T1 sequence (A0A075DN54 86-602 R342D) with D257R
The series can be described thus: enzyme kinetics, diphenolase activity. The series is classed as biochemical. Particulars: type-III copper enzyme, copper content 46.1%; read-out: Dopamine / K m.
Description: as §1

Series [6] has as its target T6, CgAUS (aurone synthase from Coreopsis grandiflora) (Coreopsis grandiflora, UniProt A0A075DN54, T338D/R342D).
T6 construct: recombinant from E. coli, purified to homogeneity
T6 sequence (A0A075DN54 86-602 T338D/R342D): T1 sequence (A0A075DN54 86-602 R342D) with T253D
Put plainly: enzyme kinetics, diphenolase activity. The series is classed as biochemical. Particulars: type-III copper enzyme; read-out: Dopamine / K m.
Description: as §1

Substrate in series [7]: NCCc1ccc(O)cc1
Put plainly: enzyme kinetics, monophenolase activity. The series is classed as biochemical, Coreopsis grandiflora. The settings on record: type-III copper enzyme. From the text:
enzyme kinetics, monophenolase activity on CgAUS (aurone synthase from Coreopsis grandiflora)

In the case of `NCCc1ccc(O)c(O)c1` [dopamine], the Km in series [1] is 1260 ± 130 µM; in series [2] it was 60 µM; in series [3] it was 1260 ± 40 µM; in series [4], 1930 ± 120 µM; in series [5] it was 8630 ± 280 µM; in series [6], 240 ± 20 µM.

B1: CgAUS (aurone synthase from Coreopsis grandiflora) (Coreopsis grandiflora; C182S) (protein)
chain: T1 sequence (A0A075DN54 86-602 R342D) with C97S, D257R
notes: recombinant from E. coli, purified to homogeneity
Take B1: in series [7], the Km is 3590 ± 330 µM and the kcat came to 0.55 ± 0.04 s⁻¹.

B2: CgAUS (aurone synthase from Coreopsis grandiflora) (Coreopsis grandiflora; C182S/R342D/T338D) (protein)
chain: T1 sequence (A0A075DN54 86-602 R342D) with C97S, T253D
notes: as for B1
As for B2, in series [7], the Km was found to be 20 ± 0 µM and the kcat is 6.52 ± 0.39 s⁻¹.

B3: CgAUS (aurone synthase from Coreopsis grandiflora) (Coreopsis grandiflora; R342D/T338D) (protein)
chain: T1 sequence (A0A075DN54 86-602 R342D) with T253D
notes: as for B1
Regarding B3, in series [7], the Km was found to be 1090 ± 90 µM and the kcat was 9.48 ± 0.55 s⁻¹.

B4: CgAUS (aurone synthase from Coreopsis grandiflora) (Coreopsis grandiflora; T338D) (protein)
chain: T1 sequence (A0A075DN54 86-602 R342D) with T253D, D257R
notes: as for B1
Consider B4, for which, in series [7], the Km was determined as 30900 ± 7270 µM and the catalytic constant (kcat) is 2.14 ± 0.16 s⁻¹.

B5: CgAUS (aurone synthase from Coreopsis grandiflora) (Coreopsis grandiflora; R342D) (protein)
chain: T1 sequence (A0A075DN54 86-602 R342D)
notes: as for B1
Turning to B5, in series [7], the Km was 4010 ± 290 µM and the kcat turned out to be 8.26 ± 0.48 s⁻¹.
